Non-standard residues stand in square brackets, D forms with d. Primed or numbered codes have the meaning given here. *: point of attachment. Fluorescein = fluorescein label attached to the cysteine side chain; Dabcyl′ = CN(C)c1ccc(/N=N/c2ccc(C(=O)*)cc2)cc1; hPhe = N[C@@H](CCc1ccccc1)C(=O)O
Tests used:
ADAM 10 (human) Cat/Dis = molecular target: T1, ADAM 10 (human) Cat/Dis (Homo sapiens, UniProt O14672); test: Inhibition assay with ADAM10 catalytic/disintegrin construct, fluorescent substrate; format: biochemical
T1 construct: containing the catalytic/disintegrin domains; purchased R & D Systems (Minneapolis, Minn., USA)
T1 sequence (O14672 214-672 limits assumed): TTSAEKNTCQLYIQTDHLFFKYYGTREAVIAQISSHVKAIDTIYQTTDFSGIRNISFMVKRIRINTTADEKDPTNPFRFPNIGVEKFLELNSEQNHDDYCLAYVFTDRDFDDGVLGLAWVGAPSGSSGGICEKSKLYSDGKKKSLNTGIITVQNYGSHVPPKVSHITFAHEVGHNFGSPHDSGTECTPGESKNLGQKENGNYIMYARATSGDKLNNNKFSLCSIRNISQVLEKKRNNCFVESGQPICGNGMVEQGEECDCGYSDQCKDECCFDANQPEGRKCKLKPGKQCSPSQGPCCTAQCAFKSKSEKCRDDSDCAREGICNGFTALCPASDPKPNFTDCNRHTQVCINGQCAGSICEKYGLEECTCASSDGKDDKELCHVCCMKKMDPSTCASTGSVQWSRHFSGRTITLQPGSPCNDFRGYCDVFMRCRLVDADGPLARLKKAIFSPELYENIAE
Procedure: (§1) Inhibition assays with TACE and ADAM 10. Activity of TACE catalytic/disintegrin, TACE catalytic, or ADAM10 catalytic/disintegrin constructs was monitored at 3 minute intervals using the fluorescent substrate, Dabcyl-LAQAHomoPheRSC(Fluorescein)-NH2 (SEQ ID NO 17) with excitation 485 nm and emission 530 nm. The substrate was diluted from a 10 mM stock in DMSO to 10 μM in assay buffer containing 20 mM Tris, pH 8.0, and 0.0006% Brij-35. Reactions were run in a 96-well black-coated plate with either ADAM10 prodomain (10 nM-1.0 μM) alone or with enzyme. Concentrations of enzyme ranged from 0.5-2.0 nM for TACE and 5-15 nM for ADAM10. For assays with TACE and ADAM8 prodomain, the range of concentrations varied from 1-4.7 μM.
(§2) Calculation of inhibition constants. The amount of activity was calculated by subtracting the ADAM 10 prodomain control from the ADAM 10 prodomain with enzyme. All inhibition assays were performed at room temperature and the data fit to the following equation using Sigma Plot software:
(§3) [formula] where If is fractional inhibition, I is the inhibitor concentration and Ki is the inhibition constant.
Wild type ADAM 10 prodomain (23-213) was tested to determine the mode of inhibition of ADAM 10 protein. ADAM 10 protein was diluted 1:100 in buffer 25 mM Tris pH 8, 0.0006% Brij-35 and then 10 μl was added to 88 μl of substrate (20-100 μM), Dabcyl-LAQAHomoPheRSC(Fluorescein)-NH2 with excitation 485 nm and emission 530 nm. Prodomain, 2 μl, in 25 mM Tris, pH 8, 100 mM NaCl, 10% glycerol, 0.1% mercaptoethanol, and 50 μM CaCl2 was added to substrate before addition of enzyme. The final concentration of prodomain ranged from 17-170 nM. The fluorescence vs time was plotted, and slopes were taken from straight line fits of initial velocities. The reciprocal of the velocities was plotted vs the reciprocal of substrate squared since the normal Lineweaver Burke plot gave curved lines. The initial velocities vs substrate concentrations were fit as a family of curves to several allosteric models.

MMP 1, 2, 3, 9, 13, 14 = test: Inhibition assays with MMPs; format: biochemical; settings: 3 μM prodomain
Procedure: Inhibition assays with MMPs. The fluorescent substrate Dabcyl-GPLGMRGC (Fluorescein)-NH2 (SEQ ID NO 18) (10 μM) in assay buffer containing 50 mM Tris, pH 7.5, 150 mM NaCl, 2 mM CaCl2, 5 μM ZnSO4, and 0.01% Brij-35 was used to monitor enzyme activities. MMPs 1, 2, 3, 9, 13, and 14 (0.1-20 nM) were incubated with substrate in the absence or presence of prodomain (3-30 μM). Fluorescence intensities were measured every 3-5 minutes at an emission wavelength of 530 nm (excitation 485 nm).
as §2, §3

TACE (human) Cat/Dis = molecular target: T2, TACE (human) Cat/Dis (Homo sapiens, UniProt P78536); test: Inhibition assay with TACE catalytic/disintegrin construct, fluorescent substrate; format: biochemical
T2 construct: containing the catalytic/disintegrin domains; purchased R & D Systems (Minneapolis, Minn., USA)
T2 sequence (P78536 215-671 limits assumed): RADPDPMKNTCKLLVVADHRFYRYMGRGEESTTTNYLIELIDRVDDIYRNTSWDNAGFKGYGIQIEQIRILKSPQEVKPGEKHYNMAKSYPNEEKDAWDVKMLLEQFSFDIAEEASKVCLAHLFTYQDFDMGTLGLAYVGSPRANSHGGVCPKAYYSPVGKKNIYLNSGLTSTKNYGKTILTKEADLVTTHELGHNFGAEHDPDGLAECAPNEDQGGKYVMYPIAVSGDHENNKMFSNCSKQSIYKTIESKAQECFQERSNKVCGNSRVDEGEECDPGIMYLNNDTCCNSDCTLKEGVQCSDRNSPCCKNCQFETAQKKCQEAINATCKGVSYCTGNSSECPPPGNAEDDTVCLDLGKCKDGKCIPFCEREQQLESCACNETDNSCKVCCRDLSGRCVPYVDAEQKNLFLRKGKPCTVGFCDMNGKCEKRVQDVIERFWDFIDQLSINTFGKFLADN
Procedure: as §1, §2, §3

TACE (human) Cat = molecular target: T3, TACE (human) Cat (Homo sapiens, UniProt P78536); test: Inhibition assay with TACE catalytic domain, fluorescent substrate; format: biochemical; settings: at 3.5 μM
T3 construct: TACE catalytic domain, Marcos Milla, University of Pennsylvania; donated by Marcos Milla, University of Pennsylvania
T3 sequence (P78536 223-474 limits assumed): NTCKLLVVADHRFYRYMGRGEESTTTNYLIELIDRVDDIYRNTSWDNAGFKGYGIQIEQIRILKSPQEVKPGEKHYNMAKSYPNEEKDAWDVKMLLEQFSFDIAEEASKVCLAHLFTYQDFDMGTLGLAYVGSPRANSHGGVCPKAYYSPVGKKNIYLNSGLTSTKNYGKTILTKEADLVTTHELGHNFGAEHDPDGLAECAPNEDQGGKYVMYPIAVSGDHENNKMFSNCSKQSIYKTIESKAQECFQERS
Procedure: as §1, §2, §3

[1] = molecular target: T4, ADAM 8 (mouse) catalytic domain (Mus musculus, UniProt Q05910); test: Inhibition assay with ADAM 8 catalytic domain; format: biochemical; settings: at 1.7 μM
T4 construct: The ADAM 8 catalytic domain was expressed and purified from E. coli as described (22); made in house; host or cells: E. coli
T4 sequence (Q05910 196-395 limits assumed): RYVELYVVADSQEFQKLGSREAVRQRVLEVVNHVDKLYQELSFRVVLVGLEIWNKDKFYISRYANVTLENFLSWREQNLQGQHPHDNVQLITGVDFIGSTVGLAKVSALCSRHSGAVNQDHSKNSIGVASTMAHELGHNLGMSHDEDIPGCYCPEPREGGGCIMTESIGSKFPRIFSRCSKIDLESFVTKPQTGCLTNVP
Procedure: Inhibition assays with ADAM 8. The ADAM 8 catalytic domain was expressed and purified from E. coli as described (22). A substrate based on the L-selectin cleavage site, Dnp-INorIeuQKLDKSFSMIKE-NH2 (SEQ ID NO 20), was used to monitor enzyme activity with a fluorescamine assay. From a concentrated 50 mM solution in DMSO, the substrate was diluted 1:500 in 25 mM HEPES, pH 8.0, 0.0006% Brij-35. To 100 μl of diluted substrate was added either 5 μl of buffer (Tris, pH 8.0, 150 mM KCl) or 5 μl of ADAM10 prodomain (1-10 μM). Zero time points were taken by diluting 12.5 μl of the reaction mixture into 100 μl of fluorescamine buffer (50 mM HEPES, pH 8.0, 0.2 M NaCl, 0.01 M CaCl2, 0.01% Brij-35) in a 96-well black-coated plate. Before measuring fluorescence, 3 μl of a 1% solution of fluorescamine in DMSO was added to each well. The plate was allowed to incubate for 10 min in the dark before measuring fluorescence (excitation wavelength at 390 nm, emission wavelength at 485 nm). For assays with TACE and ADAM8 prodomains, a fluorescent substrate was used to monitor activity at concentrations of prodomains ranging from 1-4.7 μM.
Calculation of inhibition constants. The amount of activity was calculated by subtracting the ADAM 10 prodomain control from the ADAM 10 prodomain with enzyme. […]

CD23 shedding in B cells = test: CD23 shedding in B cells, flow cytometry; format: cell-based; settings: 1-5 μM, 12 hr
Procedure: The CD23 sheddase activity of ADAM 10 protein was further tested in a B-cell assay. B-cells were cultured for 12 hr in the presence or absence of IL-4 (100 ng/ml), wild type C-terminal His tagged ADAM 10 (23-213) (1-5 μM) or match diluent control (25 mM Tris-HCl pH 8, 100 mM NaCl, 10% glycerol, 0.1% β-mercaptoethanol). Cells were stained for expression of surface antigens following washing with 1% BSA/PBS. Cells were incubated for 30 minutes at 4° C. in the dark with fluorochrome-conjugated mAbs: APC-CD19 (CALTAG, Burlingame, Calif.), CD23-PE, mlgG1-PE (BD Biosciences) before washing to remove unbound mAb. Cells were resuspended in PBS and immediately analyzed with the use of the FACS Calibur (BD Biosciences). The software program FlowJo (Ashland, Oreg.) was used to analyze data generated by flow cytometry.

## Dabcyl-LAQAHomoPheRSC(Fluorescein)-NH2 ({Dabcyl′}-LAQA[hPhe]RSC(Fluorescein)-NH2) [fluorescent substrate for TACE and ADAM10 assays, reference compound]
ADAM 10 (human) Cat/Dis; fit to pure competitive allosteric model
  binding constant, Ks for substrate: 16 ± 4.6 µM

B1: wt ProADAM 10 23-213 (N-terminal His tag): wild type mouse ADAM 10 prodomain, amino acids 23-213, N-terminal His tag, expressed in E. coli (protein)
chain: NPLNKYIRHYEGLSYNVDSLHQKHQRAKRAVSHEDQFLLLDFHAHGRQFNLRMKRDTSLFSDEFKVETSNKVPDYDTSHIYTGHIYGEEGSFSHGSVIDGRFEGFIKTRGGTFYIEPAERYIKDRILPFHSVIYHEDDINYPHKYGPQGGCADHSVFERMRKYQMTGVEEGARAHPEKHAASSGPELLRKK
modifications: left off: small tags and cut ends
notes: wild type mouse ADAM 10 prodomain, amino acids 23-213, N-terminal His tag, expressed in E. coli
MMP 1, 2, 3, 9, 13, 14
  inhibition of matrix metalloproteinases 1, 2, 3, 9, 13 and 14: not inhibited

B2: Pro ADAM 17 (mouse): prodomain of mouse TACE (ADAM 17), residues 18-214, His-tagged, expressed in E. coli (protein)
chain: PRPPEEAGSGSHPRLEKLDSLLSDYDILSLANIQQHSIRKRDLQSATHLETLLTFSALKRHFKLYLTSSTERFSQNLRVVVVDGKEESEYSVKWQNFFSGHVVGEPDSRVLAHIGDDDVTVRINTDGAEYNVEPLWRFVNDTKDKRMLVYKSEDIKDFSRLQSPKVCGYLNADSEELLPKGLIDREPSEEFVRRVKR
modifications: left off: small tags and cut ends
notes: prodomain of mouse TACE (ADAM 17), residues 18-214, His-tagged, expressed in E. coli
ADAM 10 (human) Cat/Dis; at 3.5 μM
  inhibition of ADAM 10 (human) Cat/Dis: 11% at 3.5 μM
TACE (human) Cat/Dis; at 3.5 μM
  inhibition of TACE (human) Cat/Dis: 0%
TACE (human) Cat/Dis; micromolar concentrations
  inhibition of respective enzyme (TACE) by its prodomain: did not inhibit
TACE (human) Cat
  inhibition of TACE (human) Cat: 37%
[1]
  inhibition of ADAM 8 (mouse) Cat: 17% at 1.7 μM

B3: wt ProADAM 10 23-213 (C-terminal His tag): wild type mouse ADAM 10 prodomain, amino acids 23-213, C-terminal His tag, expressed in E. coli (protein)
chain: NPLNKYIRHYEGLSYNVDSLHQKHQRAKRAVSHEDQFLLLDFHAHGRQFNLRMKRDTSLFSDEFKVETSNKVPDYDTSHIYTGHIYGEEGSFSHGSVIDGRFEGFIKTRGGTFYIEPAERYIKDRILPFHSVIYHEDDINYPHKYGPQGGCADHSVFERMRKYQMTGVEEGARAHPEKHAASSGPELLRKKHHHHHH
ADAM 10 (human) Cat/Dis; initial velocities fit to allosteric models
  mode of inhibition of ADAM 10 protein: pure competitive
MMP 1, 2, 3, 9, 13, 14
  inhibition of matrix metalloproteinases 1, 2, 3, 9, 13 and 14: not inhibited
CD23 shedding in B cells; IL-4 100 ng/ml, FIG. 2D
  inhibition of shedding in B cells stimulated with IL-4: able to inhibit shedding
CD23 shedding in B cells; without IL-4, FIG. 2C
  inhibition of shedding in B cells: able to inhibit shedding

Source: patent publication US8034783B2, “Prodomain modulators of ADAM 10” (Biozyme, Inc., priority 2006, dated 2011)
